Here are results for ten compounds from US11160866B2, “Biomaterials for delivery of blood extracts and methods of using same” (Mosaic Biosciences, Inc., priority 2012, dated 2021).

Bounds are passed on as bounds.

In the first assay the test system is platelets. As to the kind of experiment: Selectively activated PRP and washed platelet releasates, PDGF-BB ELISA (Example 11). It counts as cell-based, human. To be noted: PRP and WP preparations, Patients A and B. How it is done: Fresh whole blood (WB) was collected into tubes containing appropriate levels of Anti-coagulant Citrate Dextrose (ACD) to prevent platelet activation and coagulation. WB samples were then split into 4 conical tubes, 50 ml WB+ACD per tube. Red Blood Cells (RBCs) were then removed by centrifuging the tubes at 3500 rpm for 10 minutes in a clinical centrifuge. Supernatants (approximately 25 ml) with some RBCs remaining were pooled into 2 conical tubes and centrifuged again at 3500 rpm for 10 minutes. Clear supernatants (plasma) were then transferred to new 50 ml conical, and Buffy Coat (BC) with some RBCs put into 15 ml conicals. […]
PRP and WPs were aliquotted into 1 ml volumes, and 4 tubes of PRP and 4 tubes of WPs were used for preparation of activated releasates: (1) no selective activation, in which no platelet activator was added (2) PAR1 activation, in which 20 ul of 500 uM PAR1 Activating Peptide (PAR1 AP) (SFLLRN, SEQ ID: 40) was added, (3) PAR4 activation, in which 20 ul of 500 uM PAR4 Activating Peptide (PAR4 AP) (AYPGKF, SEQ ID: 44) was added, and (4) ADP activation, to which 20 ul of 2.5 mM ADP (Adenosine-5′-diphosphate) was added. […] PDGF-BB levels were then measured by ELISA using a Human PDGF-BB Quantikine ELISA Kit (R&D Systems).
A general note: ELISA stands for enzyme-linked immunosorbent assay.
As to SFLLRN [PAR1-AP], the “Release of PDGF-BB compared between activators” value is recorded as “greatest release of PDGF-BB”.

A further assay has as its system whole blood. Description: PDGF release in ACD-anticoagulated whole blood treated with activators (Example 10). It counts as cell-based, human. To be noted: after 60 minutes. How it is done:
Whole blood was collected from a healthy volunteer by a certified phlebotomist into a 8.5 mL ACD-containing Vacutainer. 375 ul of 0.167 mM PAR1-AP in ultrapure water or 200 ul of 0.1 unit/microliter of thrombin (Zymogenetics) were injected into the vacutainers via a sterile 1 mL syringe; samples were gently mixed by inverting 10 times and incubated at ambient temperature for specified time. The samples were then centrifugated at 2,380×g for 5 minutes at ambient temperatures and ˜3 mL clear supernatants were collected from the top of each sample and transferred into sterile 15 mL conical tubes. Concentration of PDGF-BB in each sample was determined by ELISA (Quantikine kit, R&D Systems) according to the manufacturer's protocol.
As for `Nc1ncnc2c1ncn2[C@@H]1O[C@H](COP(=O)(O)OP(=O)(O)O)[C@@H](O)[C@H]1O` [ADP, Adenosine-5′-diphosphate], the Signs of coagulation entry was “did not”. Same read-out and setting: the result for Thrombin reads “some signs of coagulation”.

A further assay addresses T1, Collagenase (Matrix metalloproteinase I) (Homo sapiens, UniProt P03956).
T1 sequence (P03956 100-469): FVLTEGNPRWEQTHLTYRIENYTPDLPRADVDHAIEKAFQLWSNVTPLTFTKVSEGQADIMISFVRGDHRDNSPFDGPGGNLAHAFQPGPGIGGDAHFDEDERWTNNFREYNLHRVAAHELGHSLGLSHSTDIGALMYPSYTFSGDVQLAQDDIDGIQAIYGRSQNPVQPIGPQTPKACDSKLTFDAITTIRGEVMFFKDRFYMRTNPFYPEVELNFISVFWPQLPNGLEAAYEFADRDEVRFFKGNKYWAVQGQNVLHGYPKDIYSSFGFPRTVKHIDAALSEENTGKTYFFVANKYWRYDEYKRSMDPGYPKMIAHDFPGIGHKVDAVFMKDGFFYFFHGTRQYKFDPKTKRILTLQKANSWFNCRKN
Experiment: not given
Conditions: cited from earlier work.
On to GPQGIWGQ, for which the “kcat/Km relative to that of PQGIAG” value is >700%. GPQGIFGQ: the “kcat/Km relative to that of PQGIAG” value was >300%. For GPQGVAGQ, the “kcat/Km relative to that of PQGIAG” value was 9%.

In the case of GPQGIASQ, the “kcat/Km relative to that of PQGIAG” value was 130%. For the compound GPQGRAGQ, the “kcat/Km relative to that of PQGIAG” value was <5%. For the compound GPQGIAGQ, the “kcat/Km relative to that of PQGIAG” value is 100%. Consider GPVGIAGQ, for which the “kcat/Km relative to that of PQGIAG” value is recorded as 30%.
